In US10251952B2, “Humanized anti-tau(pS422) antibody brain shuttles and use thereof” (Hoffmann-La Roche Inc., priority 2014, dated 2019):
Numbering of substitutions follows the chain as printed. Like-named read-outs stand apart in the source and are kept apart here. Values belong to the molecule of their own block, whether it stands above or below them.

Legend:
human tau(pS422) [1] = target: T1, human tau(pS422) (Homo sapiens, UniProt P10636, S739X); test: BIAcore kinetic screening and kinetic rates of humanized VH/VL combinations; type: binding; settings: for MR: molar ratio; for BIAcore: summary grading 1 to 4, key not given; for kd / t/2 diss: VL17 or VL19 with VH variants
Procedure: In the following Table characteristics of the different humanized variants of the rabbit light chain variable domain in combination with the humanized heavy chain variable domains VH14 and VH20, respectively, are shown. Binding partner was human tau(pS422).
Kinetic screening was performed according to Schraeml et al. (Schraeml, M. and M. Biehl, Methods Mol. Biol. 901 (2012) 171-181) on a BIAcore 4000 instrument, mounted with a BIAcore CM5 sensor. The BIAcore 4000 instrument was under the control of the software version V1.1. A BIAcore CM5 series S chip was mounted into the instrument and was hydrodynamically addressed and preconditioned according to the manufacturer's instructions. The instrument buffer was HBS-EP buffer (10 mM HEPES (pH 7.4), 150 mM NaCl, 1 mM EDTA, 0.05% (w/v) P20). An antibody capture system was prepared on the sensor surface. A polyclonal goat anti-human antibody with human IgG-Fc specificity (Jackson Lab.) was immobilized at 30 μg/ml in 10 mM sodium acetate buffer (pH 5) to spots 1, 2, 4 and 5 in the instrument's flow cells 1, 2, 3 and 4 at 10,000 RU using NHS/EDC chemistry. In each flow cell the antibodies were captured on spot 1 and spot 5. Spot 2 and spot 4 were used as reference spots. The sensor was deactivated with a 1 M ethanolamine solution. Humanized antibody derivatives were applied at concentrations between 44 nM and 70 nM in instrument buffer supplemented with 1 mg/ml CMD (carboxymethyldextrane). The antibodies were injected at a flow rate of 30 μl/min for 2 minutes. The capture level (CL) of the surface-presented antibodies was measured in rel. response units (RU). The analytes in solution, phosphorylated human tau protein, non-phosphorylated human tau protein and the phosphorylated human tau mutant protein T422S were injected at 300 nM for 3 minutes at a flow rate of 30 μl/minute. The dissociation was monitored for 5 minutes. The capture system was regenerated by a 1 minute injection of 10 mM glycine buffer, pH 1.7 at 30 μL/minute over all flow cells. Two report points, the recorded signal shortly before the end of the analyte injection, denoted as binding late (BL) and the recorded signal shortly before the end of the dissociation time, stability late (SL), were used to characterize the kinetic screening performance. Furthermore, the dissociation rate constant kd (1/s) was calculated according to a Langmuir model and the antibody/antigen complex half-life was calculated in minutes according to the formula ln(2)/(60*kd). The molar ratio (MR) was calculated according to the formula MR=(Binding Late (RU))/(Capture level (RU))*(MW(antibody)/(MW(antigen)). In case the sensor was configured with a suitable amount of antibody ligand capture level, each antibody should be able to functionally bind at least to one analyte in solution, which is represented by a molar ratio of MR=1.0. Then, the molar ratio is also an indicator for the valence mode of analyte binding. The maximum valence can be MR=2 for an antibody binding two analytes, one with each Fab valence.
In another embodiment, kinetic rates were determined at 25° C. and 37° C. using the same experimental setup, but using multiple concentration series of each analyte in solution at 0 nM (buffer), 1.2 nM, 3.7 nM, 11.1 nM, 33.3 nM, 100 nM and 300 nM. From the concentration-dependent binding behavior the kinetic data was calculated using the BIAcore evaluation software according to the manufacturer's instructions and a Langmuir 1.1 model with RMAX global.

[2] = target: human tau phosphorylated at S422 (Homo sapiens, UniProt P10636, S739X); test: Western Blot selectivity of humanized VH/VL combinations; type: binding; settings: for WB: summary grading 1 to 4, key not given
Text: FIG. 5 is a Western Blot showing the selectivity of selected humanized VH/VL combinations; (1)=VH00/VL00, (2)=VH32/VL21, (3)=VH20/VL22, (4)=VH32/VL22, (5)=VH33/VL22.
The sensitivity of selected humanized VH/VL combinations to the human tau mutant S422A can be seen from the Western Blots shown in FIG. 5. All humanized variants selectively bind to human tau phosphorylated at S422.

human tau(pS422) [3] = target: T1, human tau(pS422); test: IHC grading in summary of biological properties; settings: key not given
Text: The following table summarizes the biological properties of selected humanized VH/VL combinations.

[4] = target: tau(pS422) fragment SEQ ID NO: 03 (Homo sapiens, UniProt P10636, S739X); test: ELISA binding specificity of VH/VL combinations
Procedure: (§1) In the following Table the binding specificity for different VH/VL combinations are shown (EC50 values in [ng/ml]).
(§2) Non-biotinylated peptide/protein/aggregate was added to non-coated Maxisorb plates, biotinylated peptide/protein/aggregate in PBS was added to streptavidin-coated Maxisorb plates, and plates were incubated over-night. The supernatant was discarded and the wells washed three times with 90 μl wash buffer (lx PBS/0.1% Tween 20). Remaining reactive spots were blocked with blocking buffer (lx PBS/2% BSA (Bovine Serum Albumin Fraction V, fatty acid free, Roche, Cat. No.: 10735078001)/0.05% Tween 20) by incubating for one hour. The supernatant was discarded and the wells washed three times with 90 μl wash buffer. Samples and control antibody were prepared in 12 dilutions (1:2) in ELISA buffer (lx PBS/0.5% BSA (Bovine Serum Albumin Fraction V, fatty acid free, Roche, Cat. No.: 10735078001)/0.05% Tween 20) with a start concentration of 500 ng/ml. The incubation time was 60 minutes at room temperature on a shaker. The supernatant was discarded and the wells washed three times with 90 μl wash buffer. Solutions of secondary antibody were prepared in ELISA buffer. A total of 25 μl antibody-mix was transferred to all wells of the assay plate and the plate was thereafter incubated on shaker for 60 minutes at room temperature. The supernatant was discarded and the wells were washed three times with 90 μl wash buffer. 25 μl of ABTS solution was added to all wells. The absorbance was read at 405 nm-492 nm.

[5] = target: full length tau(pS422) SEQ ID NO: 02 (Homo sapiens, UniProt P10636, S739X); test: ELISA binding specificity of VH/VL combinations
Procedure: as §1, §2

tau(pS422) aggregates = tau(pS422) aggregates (Homo sapiens, UniProt P10636, S739X); test: ELISA binding specificity of VH/VL combinations
Procedure: as §1, §2

[6] = target: T2, tau peptide residues 416 to 430 of SEQ ID NO: 01 (Homo sapiens, UniProt P10636); test: ELISA binding specificity of VH/VL combinations
T2 construct: 416 to 430
Procedure: as §1, §2

[7] = target: T3, S422A tau mutant S422A SEQ ID NO: 01 (Homo sapiens, UniProt P10636, S739A); test: ELISA binding specificity of VH/VL combinations
T3 construct: (A)=full length human tau S422A mutant
Procedure: as §1, §2

T3 sequence (P10636 1-441 isoform P10636-8 S422A): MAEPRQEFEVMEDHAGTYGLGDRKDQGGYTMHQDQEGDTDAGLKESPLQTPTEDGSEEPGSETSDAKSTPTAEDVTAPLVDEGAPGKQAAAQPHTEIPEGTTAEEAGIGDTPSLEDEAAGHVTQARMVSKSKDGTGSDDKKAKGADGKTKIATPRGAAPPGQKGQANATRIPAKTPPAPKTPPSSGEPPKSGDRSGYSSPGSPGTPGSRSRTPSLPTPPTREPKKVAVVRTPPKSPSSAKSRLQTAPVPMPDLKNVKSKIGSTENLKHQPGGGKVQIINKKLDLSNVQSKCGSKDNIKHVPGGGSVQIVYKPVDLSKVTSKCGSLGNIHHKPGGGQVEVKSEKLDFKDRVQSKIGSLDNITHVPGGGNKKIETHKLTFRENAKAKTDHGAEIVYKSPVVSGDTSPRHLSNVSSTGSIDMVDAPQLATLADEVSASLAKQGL

t/2diss 25° C. (human tau(pS422) [1]; 25 °C): 26 min
Kd (human tau(pS422) [1]; 25 °C, read-out: KD 25° C.): 18 nM
t/2diss 37° C. (human tau(pS422) [1]; 37 °C): 9 min
Kd (human tau(pS422) [1]; 37 °C, read-out: KD 37° C.): 32 nM
MR (human tau(pS422) [1]; 25 °C): 0.5
MR (human tau(pS422) [1]; 37 °C): 0.6
BIAcore (human tau(pS422) [1]): 2
WB [2]: 2
IHC (human tau(pS422) [3]): 3
EC50 tau(pS422) fragment SEQ ID NO: 03 [4]: 4.4 ng/ml
EC50 full length tau(pS422) SEQ ID NO: 02 [5]: 2.9 ng/ml
EC50 tau(pS422) aggregates (tau(pS422) aggregates): 9.4 ng/ml
EC50 tau peptide residues 416 to 430 of SEQ ID NO: 01 [6]: 634 ng/mL
EC50 S422A tau mutant S422A SEQ ID NO: 01 [7]: 21.5 ng/mL
B1: VH32/VL21: humanized anti-human tau(pS422) antibody; VH SEQ ID NO: 19, VL SEQ ID NO: 16 (antibody, V domains shown)
VH: EVQVLESGGGLVQPGGSLRLSCAVSGFSLSSNAINWVRQAPGKGLEWVGYIAVSGNTYYASWAKGRFTISRDNSKNTVYLQMNSLRAEDTAVYYCGKSNIWGQGTLVTVSS
VL: AQVMTQSPSSLSASVGDRVTITCRSSQSVRTNKLAWFQQKPGQPPKRLIYSASTLDFGVPSRFSGSGSGTEFTLTISSLQPEDFATYYCLGYFDSSADIVAFGGGTKVEIK
modifications: humanized sequence

t/2diss 25° C. (human tau(pS422) [1]; 25 °C): 29 min
Kd (human tau(pS422) [1]; 25 °C, read-out: KD 25° C.): 14 nM
t/2diss 37° C. (human tau(pS422) [1]; 37 °C): 8 min
Kd (human tau(pS422) [1]; 37 °C, read-out: KD 37° C.): 31 nM
MR (human tau(pS422) [1]; 25 °C): 0.5
MR (human tau(pS422) [1]; 37 °C): 0.6
BIAcore (human tau(pS422) [1]): 1
WB [2]: 1
IHC (human tau(pS422) [3]): 1
EC50 tau(pS422) fragment SEQ ID NO: 03 [4]: 5.6 ng/ml
EC50 full length tau(pS422) SEQ ID NO: 02 [5]: 3.5 ng/ml
EC50 tau(pS422) aggregates (tau(pS422) aggregates): 8.3 ng/ml
EC50 tau peptide residues 416 to 430 of SEQ ID NO: 01 [6]: 48 ng/mL
EC50 S422A tau mutant S422A SEQ ID NO: 01 [7]: 17.4 ng/mL
B2: VH32/VL22: humanized anti-human tau(pS422) antibody; VH SEQ ID NO: 19, VL SEQ ID NO: 17 (antibody, V domains shown)
VH: B1 VH
VL: B1 VL with K33R, F57Y
modifications: humanized sequence

t/2diss 25° C. (human tau(pS422) [1]; 25 °C): 54 min
Kd (human tau(pS422) [1]; 25 °C, read-out: KD 25° C.): 8 nM
t/2diss 37° C. (human tau(pS422) [1]; 37 °C): 24 min
Kd (human tau(pS422) [1]; 37 °C, read-out: KD 37° C.): 12 nM
MR (human tau(pS422) [1]; 25 °C): 0.6
MR (human tau(pS422) [1]; 37 °C): 0.8
EC50 tau(pS422) fragment SEQ ID NO: 03 [4]: 6.3 ng/ml
EC50 full length tau(pS422) SEQ ID NO: 02 [5]: 5.2 ng/ml
EC50 tau(pS422) aggregates (tau(pS422) aggregates): 18.1 ng/ml
EC50 tau peptide residues 416 to 430 of SEQ ID NO: 01 [6]: >1000 ng/mL
EC50 S422A tau mutant S422A SEQ ID NO: 01 [7]: 47.9 ng/mL
B3: VH00/VL00: rabbit antibody reference (parent of humanized variants, from mAb 086); VH SEQ ID NO: 11, VL SEQ ID NO: 07 (antibody, listed as Oryctolagus cuniculus, V domains shown)
VH: QSVEESGGRLVTPGTPLTLTCTVSGFSLSSNAINWVRQAPGKGLEWIGYIAVSGNTYYASWAKGRFTISKASTTVDLKMTSPTAEDTGTYFCGKSNIWGPGTLVTVSL
VL: AQVLTQTTSPVSAAVGSTVTISCQSSQSVRTNKLAWFQQKPGQPPKRLIYSASTLDFGVPSRFSASGSGTQFTLTISDVQCDDAATYYCLGYFDCSIADCVAFGGGTEVVVK
selectivity and cross-reactivity in Western Blot ([2]; FIG. 5): low level x-reactivity to non-S422 phosphoepitopes

kd (human tau(pS422) [1]; 25 °C): 0.00371 s⁻¹
t/2 diss (human tau(pS422) [1]; 25 °C): 3 min
B4: VL17 with VH02: anti-human tau(pS422) antibody; VH SEQ ID NO: 47, VL SEQ ID NO: 37 (antibody, V domains shown)
VH: QSVLESGGGLVQPGGSLRLSCAASGFSLSSNAINWVRQAPGKGLEWVGYIAVSGNTYYASWAKGRFTISRDNSKNTLYLQMNSLRAEDTAVYYCGKSNIWGPGTLVTVSS
VL: DIQMTQSPSSLSASVGDRVTITCRSSQSVRTNKLAWFQQKPGQPPKRLIYSASTLDFGVPSRFSGSGSGTEFTLTISSLQPEDFATYYCLGYFDCSIADCVAFGGGTKVEIK
modifications: humanized sequence

kd (human tau(pS422) [1]; 25 °C): 0.00326 s⁻¹
t/2 diss (human tau(pS422) [1]; 25 °C): 4 min
B5: VL17 with VH15: anti-human tau(pS422) antibody; VH SEQ ID NO: 51, VL SEQ ID NO: 37 (antibody, V domains shown)
VH: B4 VH with L4V
VL: B4 VL
modifications: humanized sequence

kd (human tau(pS422) [1]; 25 °C): 0.00393 s⁻¹
t/2 diss (human tau(pS422) [1]; 25 °C): 3 min
B6: VL17 with VH03: anti-human tau(pS422) antibody; VH SEQ ID NO: 48, VL SEQ ID NO: 37 (antibody, V domains shown)
VH: B4 VH with A23V
VL: B4 VL
modifications: humanized sequence

kd (human tau(pS422) [1]; 25 °C): 0.00416 s⁻¹
t/2 diss (human tau(pS422) [1]; 25 °C): 3 min
B7: VL17 with VH04: anti-human tau(pS422) antibody; VH SEQ ID NO: 49, VL SEQ ID NO: 37 (antibody, V domains shown)
VH: QSVLESGGGLVQPGGSLRLSCAVSGFSLSSNAINWVRQAPGKGLEWVGYIAVSGNTYYASWAKGRFTISRDSTTLYLQMNSLRAEDTAVYYCGKSNIWGPGTLVTVSS
VL: B4 VL
modifications: humanized sequence
